In patent publication US20200255516A1 (JIANGSU HENGRUI MEDICINE, published 2020):

What was measured:
[1] = biological target: T1, Full-length human TIGIT on CHO cells overexpressing TIGIT (human, UniProt Q495A1 22-244); experiment: cell ELISA on fixed CHO cells overexpressing human TIGIT
T1 construct: also called TIGIT-CHO cells; CHO cells overexpressing human TIGIT
T1 sequence: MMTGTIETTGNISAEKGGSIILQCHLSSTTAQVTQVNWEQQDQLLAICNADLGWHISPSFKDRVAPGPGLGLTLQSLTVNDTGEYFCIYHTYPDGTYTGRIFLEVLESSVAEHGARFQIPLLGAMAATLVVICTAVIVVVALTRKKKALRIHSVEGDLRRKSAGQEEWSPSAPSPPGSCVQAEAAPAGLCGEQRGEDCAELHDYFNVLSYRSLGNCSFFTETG

[2] = biological target: T2, human TIGIT (Sinobiological Co., Ltd., Cat. 10917-H08-H) (human, UniProt Q495A1 22-141); experiment: SPR (Biacore), captured antibody, TIGIT-His as analyte
T2 construct: also called huTIGIT; TIGIT-His
T2 sequence (looked up): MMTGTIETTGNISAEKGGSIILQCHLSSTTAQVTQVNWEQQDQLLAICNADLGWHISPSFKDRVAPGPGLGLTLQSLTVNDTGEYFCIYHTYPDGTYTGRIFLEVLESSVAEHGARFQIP

[3] = biological target: T3, cynoTIGIT-mFc (fusion protein of cynoTIGIT extracellular domain and mouse IgG2a Fc fragment) (cynomolgus); experiment: SPR (Biacore T200), antibody held by Fc affinity capture, cynoTIGIT-mFc in mobile phase, 1:1 Langmuir fit
T3 construct: also called monkey TIGIT; cynomolgus TIGIT-mFc fusion protein
T3 sequence (chain, as listed by the source limits assumed): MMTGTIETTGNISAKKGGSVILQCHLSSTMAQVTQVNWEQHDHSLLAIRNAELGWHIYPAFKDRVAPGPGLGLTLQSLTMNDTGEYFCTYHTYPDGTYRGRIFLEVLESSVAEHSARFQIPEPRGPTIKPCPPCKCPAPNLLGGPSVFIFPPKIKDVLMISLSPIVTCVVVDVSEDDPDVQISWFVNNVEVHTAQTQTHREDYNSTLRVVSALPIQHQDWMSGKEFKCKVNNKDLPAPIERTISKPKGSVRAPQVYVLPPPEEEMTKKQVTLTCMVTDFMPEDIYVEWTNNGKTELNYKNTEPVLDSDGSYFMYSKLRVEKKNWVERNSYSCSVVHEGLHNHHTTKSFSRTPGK

[4] = biological target: T4, human TIGIT on SEB-activated human PBMC (human, UniProt Q495A1); experiment: flow cytometry on SEB-activated human PBMC, PE anti-human IgG, MFI
T4 construct: native, on the cell surface
T4 sequence (receptor chain, looked up): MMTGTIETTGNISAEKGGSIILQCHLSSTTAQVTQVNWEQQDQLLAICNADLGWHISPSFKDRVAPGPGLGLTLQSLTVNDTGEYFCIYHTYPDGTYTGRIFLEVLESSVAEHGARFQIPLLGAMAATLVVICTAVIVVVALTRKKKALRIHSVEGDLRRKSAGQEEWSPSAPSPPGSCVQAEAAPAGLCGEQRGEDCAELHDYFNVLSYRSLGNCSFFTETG

[5] = biological target: T5, TIGIT fusion protein with Fc or mFc tag (human, UniProt Q495A1 22-141); experiment: HTRF blocking assay: TIGIT-Fc or TIGIT-mFc with biotinylated CD155 as the blocked ligand, ratio 665/620
T5 construct: extracellular domain; also called TIGIT-Fc; TIGIT-mFc
T5 sequence (looked up): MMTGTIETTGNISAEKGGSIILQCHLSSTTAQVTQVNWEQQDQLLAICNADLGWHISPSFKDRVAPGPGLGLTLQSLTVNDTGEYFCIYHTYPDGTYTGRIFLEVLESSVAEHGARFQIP

[6] = biological target: T2, human TIGIT (Sinobiological Co., Ltd., …); experiment: SPR (Biacore T200), antibody captured via Protein A, huTIGIT in mobile phase, 1:1 Langmuir fit
[7] = biological target: T5, TIGIT fusion protein with Fc or mFc tag; experiment: blocking cell ELISA: TIGIT-hFc or TIGIT-mFc (0.2 ug/ml) pre-mixed with the antibody, added to fixed CHO cells overexpressing CD155 (blocked ligand), OD450
[8] = biological target: T1, Full-length human TIGIT on CHO cells …; experiment: FACS blocking assay on TIGIT-CHO cells; competitor CF633-labeled CD155-Fc at 2 ug/ml
[9] = biological target: T5, TIGIT fusion protein with Fc or mFc tag; experiment: ELISA: human TIGIT-Fc or TIGIT-mFc captured by coated anti-Fc antibody, HRP secondary antibody, OD450
[10] = biological target: T5, TIGIT fusion protein with Fc or mFc tag; experiment: FACS blocking assay: TIGIT-mFc pre-incubated with the antibody, added to CHO cells overexpressing CD112 (blocked ligand), PE anti-mouse IgG, MFI
[11] = biological target: T3, cynoTIGIT-mFc (fusion protein of …); experiment: ELISA: cynomolgus TIGIT-Fc or TIGIT-mFc captured by coated anti-Fc antibody, HRP secondary antibody, OD450

B1: h1711-04 (antibody, human IgG4 S228P, kappa, V domains shown)
VH: EVQLVQSGAEVKKPGSSVKVSCKASGYTFSNYWIGWVRQAPGQGLEWIGDIYPGGAYTNYNEKFKDRVTITADKSTSTAYMEFSSLRSEDTAVYYCTRGDYYDSSGRAMDYWGQGTLVTVSS
VL: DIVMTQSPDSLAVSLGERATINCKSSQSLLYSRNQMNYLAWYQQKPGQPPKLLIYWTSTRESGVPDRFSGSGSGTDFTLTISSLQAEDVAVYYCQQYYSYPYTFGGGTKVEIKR
notes: also called humanized TIGIT antibody h1711-04
- EC50 [1]: 0.0587 nM
- Kd [2]: 0.21 nM
- koff [2]: 0.000442 s⁻¹
- kon [2]: 2.1e+06 M⁻¹ s⁻¹
- Kd [3]: 0.129 nM
- koff [3]: 0.000317 s⁻¹
- kon [3]: 2.46e+06 M⁻¹ s⁻¹
- EC50 (read off the curve) [4]: ~0.3 nM
- IC50 (read off the curve) [5]: ~3 nM
- Kd [6]: 0.238 nM
- koff [6]: 0.000436 s⁻¹
- kon [6]: 1.83e+06 M⁻¹ s⁻¹
- IC50 (read off the curve) [7]: ~1 nM
- IC50 [8]: 0.57 nM
- EC50 (read off the curve) [9]: ~0.1 nM
- IC50 (read off the curve) [10]: ~5 nM
- EC50 (read off the curve) [11]: ~0.1 nM
